Test [1] concerns the target Plexin-B1 ICD E1530R.E1533R (human) (UniProt O43157).
The target of test [2] is Plexin-B1 ICD R1900E.R1904E (human) (UniProt O43157).
Test [3] addresses Plexin-B1 ICD FL [res. 1511-2135] (human, UniProt O43157 1511-2135). Nature of the test: MST.
For test [4], the target named is Plexin-B1 ICD E1530R.E1533R (human, UniProt O43157 1511-2135, E1530R | E1533R). Briefly: MST.
Test [5] deals with Plexin-B1 ICD R1900E.R1904E (human, UniProt O43157 1511-2135, R1900E | R1904E). Briefly: MST.
Sequence of Plexin-B1 ICD R1900E.R1904E (O43157 1511-2135 R1900E/R1904E): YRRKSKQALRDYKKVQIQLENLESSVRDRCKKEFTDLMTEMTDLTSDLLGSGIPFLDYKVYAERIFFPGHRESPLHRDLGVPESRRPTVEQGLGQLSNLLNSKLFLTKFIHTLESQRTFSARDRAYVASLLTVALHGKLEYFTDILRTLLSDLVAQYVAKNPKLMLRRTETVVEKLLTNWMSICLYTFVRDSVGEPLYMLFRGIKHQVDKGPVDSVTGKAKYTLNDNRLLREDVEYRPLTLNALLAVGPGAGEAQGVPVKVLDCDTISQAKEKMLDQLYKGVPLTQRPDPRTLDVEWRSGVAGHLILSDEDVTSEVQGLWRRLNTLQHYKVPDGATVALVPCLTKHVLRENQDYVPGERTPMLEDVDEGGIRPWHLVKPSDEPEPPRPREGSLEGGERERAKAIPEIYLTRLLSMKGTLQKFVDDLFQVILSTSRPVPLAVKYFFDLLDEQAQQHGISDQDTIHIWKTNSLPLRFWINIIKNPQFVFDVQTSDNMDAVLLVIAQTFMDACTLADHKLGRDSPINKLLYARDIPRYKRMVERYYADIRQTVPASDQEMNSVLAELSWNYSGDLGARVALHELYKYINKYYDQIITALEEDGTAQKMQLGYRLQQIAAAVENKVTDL

Sequence of Plexin-B1 ICD FL [res. 1511-2135] (O43157 1511-2135): as the sequence (O43157 1511-2135 R1900E/R1904E) above, with E390R, E394R counted along it
Sequence of Plexin-B1 ICD R1900E.R1904E (human) (O43157 1511-2135 R1900E/R1904E): as the sequence (O43157 1511-2135 R1900E/R1904E) above
Sequence of Plexin-B1 ICD E1530R.E1533R (O43157 1511-2135 E1530R/E1533R): as the sequence (O43157 1511-2135 R1900E/R1904E) above, with E20R, E23R, E390R, E394R counted along it
Sequence of Plexin-B1 ICD E1530R.E1533R (human) (O43157 1511-2135 E1530R/E1533R): as the sequence (O43157 1511-2135 R1900E/R1904E) above, with E20R, E23R, E390R, E394R counted along it

Turning to “Human Rap1b wild type [res. 1 to 184] (from UniProt P61224 1-184) (enzyme)”, the loss of GAP activity towards Rap1b against wild type Plexin-B1 ICR in test [1] and in test [2] was over 50% throughout.

B1: Rap1b G12V (constitutive active mutant) [res. 1 to 184] (enzyme, human, UniProt P61224 1-184, looked up)
chain: MREYKLVVLGSVGVGKSALTVQFVQGIFVEKYDPTIEDSYRKQVEVDAQQCMLEILDTAGTEQFTAMRDLYMKNGQGFALVYSITAQSTFNDLQDLREQILRVKDTDDVPMILVGNKCDLEDERVVGKEQGQNLARQWNNCAFLESSAKSKINVNEIFYDLVRQINRKTPVPGKARKKSSCQLL
The term Kd denotes a measure of binding affinity in units of concentration. Consider B1, for which the binding result in test [3] is “binds”. In addition, the Kd in test [4] and in test [5] was over 100 µM throughout.
